From patent US20190300590A1 (PROTAGONIST THERAPEUTICS, published 2019)
*1 amine or outer side, *2 acyl side, *3 side chain or, on linkers, in order; H or OH if unused. Bridges are numbered along the chain shown (N, C = ends). [ ]: non-standard residue; d: D form. Phe(4-(2-acetylaminoethoxy)) = 4-(2-acetamidoethoxy)-phenylalanine, CC(=O)NCCOc1ccc(C[C@H](N[*:1])C(=O)[*:2])cc1; Abu(4-yl) = O=C([C@H](CC[*:3])N[*:1])[*:2]; 2Nal = N[C@@H](Cc1ccc2ccccc2c1)C(=O)O; AEF = NCCOc1ccc(C[C@H](N)C(=O)O)cc1; αMeL = CC(C)C[C@](C)(N)C(=O)O; hLeu = CC(C)CC[C@H](N)C(=O)O; αMeK = C[C@](N)(CCCCN)C(=O)O; Abu = CC[C@H](N)C(=O)O; βAla = NCCC(=O)O

T1: IL23R_huFC (human, UniProt Q5VWK5 24-353)
T1 sequence (looked up): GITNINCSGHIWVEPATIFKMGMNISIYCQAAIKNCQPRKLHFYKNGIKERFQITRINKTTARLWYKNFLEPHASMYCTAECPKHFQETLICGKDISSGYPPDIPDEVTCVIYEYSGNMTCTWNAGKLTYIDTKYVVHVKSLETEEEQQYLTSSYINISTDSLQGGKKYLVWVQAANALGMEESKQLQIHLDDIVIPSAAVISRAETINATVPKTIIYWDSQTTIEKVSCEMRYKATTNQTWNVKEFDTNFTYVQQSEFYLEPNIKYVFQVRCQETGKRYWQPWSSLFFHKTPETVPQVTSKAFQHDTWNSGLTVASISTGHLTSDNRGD

T2: IL-23R on human cells (IL-23R-expressing DB cells; human NK cells) (human, UniProt Q5VWK5 24-629)
T2 sequence (looked up): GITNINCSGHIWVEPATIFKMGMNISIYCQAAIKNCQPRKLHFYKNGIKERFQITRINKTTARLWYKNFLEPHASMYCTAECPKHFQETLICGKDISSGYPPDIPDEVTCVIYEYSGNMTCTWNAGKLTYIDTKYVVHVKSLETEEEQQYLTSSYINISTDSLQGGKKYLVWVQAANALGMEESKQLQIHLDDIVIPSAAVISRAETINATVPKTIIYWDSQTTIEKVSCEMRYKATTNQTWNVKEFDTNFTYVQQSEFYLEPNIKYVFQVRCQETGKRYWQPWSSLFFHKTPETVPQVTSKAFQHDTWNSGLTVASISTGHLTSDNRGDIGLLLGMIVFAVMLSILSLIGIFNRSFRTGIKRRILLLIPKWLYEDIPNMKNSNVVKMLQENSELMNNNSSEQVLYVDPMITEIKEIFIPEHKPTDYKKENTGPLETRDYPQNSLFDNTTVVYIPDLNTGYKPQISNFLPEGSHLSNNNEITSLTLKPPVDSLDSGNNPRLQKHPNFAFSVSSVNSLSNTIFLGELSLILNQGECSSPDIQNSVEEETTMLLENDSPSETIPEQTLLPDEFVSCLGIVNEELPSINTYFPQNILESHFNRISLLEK

B1: Ac-E-Cyclo-[[Abu]-QTWQC]-[Phe[4-(2-aminoethoxy)]]-[2-Nal]-[α-MeLys]-ENN-NH2 (peptide)
peptide: Ac-E[Abu(4-yl)]QTWQC[AEF][2Nal][αMeK]ENN-NH2
modifications: thioether 2-7
SMILES: CC(=O)N[C@@H](CCC(=O)O)C(=O)N[C@H]1CCSC[C@@H](C(=O)N[C@@H](Cc2ccc(OCCN)cc2)C(=O)N[C@@H](Cc2ccc3ccccc3c2)C(=O)N[C@@](C)(CCCCN)C(=O)N[C@@H](CCC(=O)O)C(=O)N[C@@H](CC(N)=O)C(=O)N[C@@H](CC(N)=O)C(N)=O)NC(=O)[C@H](CCC(N)=O)NC(=O)[C@H](Cc2c[nH]c3ccccc23)NC(=O)[C@H]([C@@H](C)O)NC(=O)[C@H](CCC(N)=O)NC1=O

target: Rat IL-23R_huFC (rat); assay: rat ELISA vs IL-23

Row | IC50 | Binder
1 | < 10 nM | Ac-[dE][Abu]QTWQC[AEF][2Nal][αMeK]ENN-NH2 (thioether 2-7) [Ac-(D)Glu-[Cyclo-[[Abu]-QTWQC]-[Phe[4-(2-aminoethoxy)]]-[2-Nal]-[α-MeLys]-ENN-NH2]
2 | < 10 nM | Ac-[Abu]QTWQC[AEF][2Nal][hLeu]K(Ac)N[βAla]-NH2 (thioether 1-6) [Ac-Cyclo-[[Abu]-QTWQC]-[Phe[4-(2-aminoethoxy)]]-[2-Nal]-[hLeu]-[Lys(Ac)]-N-[βAla]-NH2]
3 | < 10 nM | Ac-[Abu]QTWQC[AEF][2Nal][αMeL]K(Ac)NN-NH2 (thioether 1-6) [Ac-Cyclo-[[Abu]-QTWQC]-[Phe[4-(2-aminoethoxy)]]-[2-Nal]-[α-MeLeu]-[Lys(Ac)]-NN-NH2]
4 | < 10 nM | Ac-[Abu]QTWQC[AEF][2Nal][αMeL]ENN-NH2 (thioether 1-6) [Ac-Cyclo-[[Abu]-QTWQC]-[Phe[4-(2-aminoethoxy)]]-[2-Nal]-[α-MeLeu]-ENN-NH2]
5 | < 10 nM | Ac-[Abu]QTWQC[Phe(4-(2-acetylaminoethoxy))][2Nal][αMeK](Ac)ENN-NH2 (thioether 1-6) [Ac-Cyclo-[[Abu]-QTWQC]-[Phe[4-(2-(acetyl-aminoethoxy)]]-[2-Nal]-[α-MeLys(Ac)]]-ENN-NH2]
6 | < 10 nM | B1
7 | < 10 nM | Ac-[dQ][Abu]QTWQC[AEF][2Nal][αMeK]ENN-NH2 (thioether 2-7) [Ac-[(D)Gln]-Cyclo-[[Abu]-QTWQC]-[Phe[4-(2-aminoethoxy)]]-[2-Nal]-[α-MeLys]-ENN-NH2]
8 | < 10 nM | Ac-[dR][Abu]QTWQC[AEF][2Nal][αMeK]ENN-NH2 (thioether 2-7) [Ac-[(D)Arg]-Cyclo-[[Abu]-QTWQC]-[Phe[4-(2-aminoethoxy)]]-[2-Nal]-[α-MeLys]-ENN-NH2]

target: T1, IL23R_huFC; assay: human ELISA vs IL-23

Row | IC50 | Binder
9 | < 10 nM | Ac-[dE][Abu]QTWQC[AEF][2Nal][αMeK]ENN-NH2 (thioether 2-7) [Ac-(D)Glu-[Cyclo-[[Abu]-QTWQC]-[Phe[4-(2-aminoethoxy)]]-[2-Nal]-[α-MeLys]-ENN-NH2]
10 | < 10 nM | Ac-[Abu]QTWQC[AEF][2Nal][hLeu]K(Ac)N[βAla]-NH2 (thioether 1-6) [Ac-Cyclo-[[Abu]-QTWQC]-[Phe[4-(2-aminoethoxy)]]-[2-Nal]-[hLeu]-[Lys(Ac)]-N-[βAla]-NH2]
11 | < 10 nM | Ac-[Abu]QTWQC[AEF][2Nal][αMeL]K(Ac)NN-NH2 (thioether 1-6) [Ac-Cyclo-[[Abu]-QTWQC]-[Phe[4-(2-aminoethoxy)]]-[2-Nal]-[α-MeLeu]-[Lys(Ac)]-NN-NH2]
12 | < 10 nM | Ac-[Abu]QTWQC[AEF][2Nal][αMeL]ENN-NH2 (thioether 1-6) [Ac-Cyclo-[[Abu]-QTWQC]-[Phe[4-(2-aminoethoxy)]]-[2-Nal]-[α-MeLeu]-ENN-NH2]
13 | < 10 nM | Ac-[Abu]QTWQC[Phe(4-(2-acetylaminoethoxy))][2Nal][αMeK](Ac)ENN-NH2 (thioether 1-6) [Ac-Cyclo-[[Abu]-QTWQC]-[Phe[4-(2-(acetyl-aminoethoxy)]]-[2-Nal]-[α-MeLys(Ac)]]-ENN-NH2]
14 | < 10 nM | B1
15 | < 10 nM | Ac-[dQ][Abu]QTWQC[AEF][2Nal][αMeK]ENN-NH2 (thioether 2-7) [Ac-[(D)Gln]-Cyclo-[[Abu]-QTWQC]-[Phe[4-(2-aminoethoxy)]]-[2-Nal]-[α-MeLys]-ENN-NH2]
16 | < 10 nM | Ac-[dR][Abu]QTWQC[AEF][2Nal][αMeK]ENN-NH2 (thioether 2-7) [Ac-[(D)Arg]-Cyclo-[[Abu]-QTWQC]-[Phe[4-(2-aminoethoxy)]]-[2-Nal]-[α-MeLys]-ENN-NH2]

target: T2, IL-23R on human cells …; assay: cell-based or functional assay

Row | pStat3 HTRF IC50 | Binder
17 | < 10 nM | Ac-[dE][Abu]QTWQC[AEF][2Nal][αMeK]ENN-NH2 (thioether 2-7) [Ac-(D)Glu-[Cyclo-[[Abu]-QTWQC]-[Phe[4-(2-aminoethoxy)]]-[2-Nal]-[α-MeLys]-ENN-NH2]
18 | < 10 nM | Ac-[Abu]QTWQC[AEF][2Nal][hLeu]K(Ac)N[βAla]-NH2 (thioether 1-6) [Ac-Cyclo-[[Abu]-QTWQC]-[Phe[4-(2-aminoethoxy)]]-[2-Nal]-[hLeu]-[Lys(Ac)]-N-[βAla]-NH2]
19 | < 10 nM | Ac-[Abu]QTWQC[AEF][2Nal][αMeL]K(Ac)NN-NH2 (thioether 1-6) [Ac-Cyclo-[[Abu]-QTWQC]-[Phe[4-(2-aminoethoxy)]]-[2-Nal]-[α-MeLeu]-[Lys(Ac)]-NN-NH2]
20 | < 10 nM | Ac-[Abu]QTWQC[AEF][2Nal][αMeL]ENN-NH2 (thioether 1-6) [Ac-Cyclo-[[Abu]-QTWQC]-[Phe[4-(2-aminoethoxy)]]-[2-Nal]-[α-MeLeu]-ENN-NH2]
21 | < 10 nM | Ac-[Abu]QTWQC[Phe(4-(2-acetylaminoethoxy))][2Nal][αMeK](Ac)ENN-NH2 (thioether 1-6) [Ac-Cyclo-[[Abu]-QTWQC]-[Phe[4-(2-(acetyl-aminoethoxy)]]-[2-Nal]-[α-MeLys(Ac)]]-ENN-NH2]
22 | < 10 nM | B1
23 | < 10 nM | Ac-[dQ][Abu]QTWQC[AEF][2Nal][αMeK]ENN-NH2 (thioether 2-7) [Ac-[(D)Gln]-Cyclo-[[Abu]-QTWQC]-[Phe[4-(2-aminoethoxy)]]-[2-Nal]-[α-MeLys]-ENN-NH2]
24 | < 10 nM | Ac-[dR][Abu]QTWQC[AEF][2Nal][αMeK]ENN-NH2 (thioether 2-7) [Ac-[(D)Arg]-Cyclo-[[Abu]-QTWQC]-[Phe[4-(2-aminoethoxy)]]-[2-Nal]-[α-MeLys]-ENN-NH2]
